From article PMC11969024 (2025)

B1: peptide HD2 (from tick evasin EVA4) / CXCL13 (biotinylated, synthetic) (parent complex)
chain 1: EEDDYTAYAPLTCYFT
chain 2: VLEVYYTSLRCRCVQESSVFIPRRFIDRIQILPRGNGCPRKEIIVWKKNKSIVCVDPQAEWIQRMMEVLRKRSSSTLPVPVFKRKIP
B2: peptide HD2 (from tick evasin EVA4) / CCL22 (biotinylated, synthetic) (parent complex)
chain 1: EEDDYTAYAPLTCYFT
chain 2: GPYGANMEDSVCCRDYVRYRLPLRVVKHFYWTSDSCPRPGVVLLTFRDKEICADPRVPWVKMILNKLSQ

Variants of: B1
For chain 1 EEDDYTAYAPLTCYST [chain 1 F15S], the enrichment was -6.75 log2 (difference from the parental peptide).
chain 1 EEDDYTAYAPLTCYFS [chain 1 T16S] was tested, and the enrichment was 0.948 log2 (difference from the parental peptide).
With chain 1 EEDDYTAYYPLTCYFT [chain 1 A9Y] the enrichment was -1.21 log2 (difference from the parental peptide).
For chain 1 EEDDYTAYHPLTCYFT [chain 1 A9H], the enrichment was -1.63 log2 (difference from the parental peptide).
In the case of chain 1 EELDYTAYAPLTCYFT [chain 1 D3L], the enrichment is reported as -5.21 log2 (difference from the parental peptide).
chain 1 ESDDYTAYAPLTCYFT [chain 1 E2S] was tested, and the enrichment was -2.79 log2 (difference from the parental peptide).
For chain 1 EWDDYTAYAPLTCYFT [chain 1 E2W], the enrichment was 1.38 log2 (difference from the parental peptide).
In the case of chain 1 EEDDYTAYAPWTCYFT [chain 1 L11W], the enrichment is reported as -1.43 log2 (difference from the parental peptide).
For chain 1 EEDDMTAYAPLTCYFT [chain 1 Y5M], the enrichment was -0.226 log2 (difference from the parental peptide).
With chain 1 EEDDPTAYAPLTCYFT [chain 1 Y5P] the enrichment was -1.42 log2 (difference from the parental peptide).
chain 1 EEDDDTAYAPLTCYFT [chain 1 Y5D] was tested, and the enrichment was 1.05 log2 (difference from the parental peptide).
In the case of chain 1 EEDDATAYAPLTCYFT [chain 1 Y5A], the enrichment is reported as -2.67 log2 (difference from the parental peptide).
With chain 1 EEDDGTAYAPLTCYFT [chain 1 Y5G] the enrichment was -3.88 log2 (difference from the parental peptide).
In the case of chain 1 EEDDYTAYAPLFCYFT [chain 1 T12F], the enrichment is reported as -1.29 log2 (difference from the parental peptide).
In the case of chain 1 EEDDYTAYAPLMCYFT [chain 1 T12M], the enrichment is reported as -0.149 log2 (difference from the parental peptide).
In the case of chain 1 EEDDYTAYAPLTCHFT [chain 1 Y14H], the enrichment is reported as -4.76 log2 (difference from the parental peptide).
With chain 1 SEDDYTAYAPLTCYFT [chain 1 E1S] the enrichment was -2.39 log2 (difference from the parental peptide).
For chain 1 KEDDYTAYAPLTCYFT [chain 1 E1K], the enrichment was -4.84 log2 (difference from the parental peptide).
With chain 1 EEDDYMAYAPLTCYFT [chain 1 T6M] the enrichment was 3.02 log2 (difference from the parental peptide).
With chain 1 EEDDYTAAAPLTCYFT [chain 1 Y8A] the enrichment was -4.55 log2 (difference from the parental peptide).
In the case of chain 1 EEDDYTAYAPLTLYFT [chain 1 C13L], the enrichment is reported as -10.1 log2 (difference from the parental peptide).
chain 1 EEDDYTAYANLTCYFT [chain 1 P10N] was tested, and the enrichment was -5.21 log2 (difference from the parental peptide).
chain 1 EEDYYTAYAPLTCYFT [chain 1 D4Y] was tested, and the enrichment was -2.64 log2 (difference from the parental peptide).

Variants of: B2
For chain 1 EEDDYTAYAPLTVYFT [chain 1 C13V], the enrichment was -4.77 log2 (difference from the parental peptide).
For chain 1 EEDDYTAYAPLTEYFT [chain 1 C13E], the enrichment was -7.93 log2 (difference from the parental peptide).
For chain 1 EEDDYTAYAPLTNYFT [chain 1 C13N], the enrichment was -2.81 log2 (difference from the parental peptide).
For chain 1 EEDDYTAYAPLTDYFT [chain 1 C13D], the enrichment was -7.57 log2 (difference from the parental peptide).
chain 1 EEDDYTAYAPLTIYFT [chain 1 C13I] was tested, and the enrichment was -3.42 log2 (difference from the parental peptide).
For chain 1 EEDDYTAYAPLTHYFT [chain 1 C13H], the enrichment was -3.89 log2 (difference from the parental peptide).
chain 1 EEDDYTAYAPLTGYFT [chain 1 C13G] was tested, and the enrichment was -5.34 log2 (difference from the parental peptide).
In the case of chain 1 EEDDYTAYAPLTTYFT [chain 1 C13T], the enrichment is reported as -3.64 log2 (difference from the parental peptide).
For chain 1 EHDDYTAYAPLTCYFT [chain 1 E2H], the enrichment was -3.64 log2 (difference from the parental peptide).
With chain 1 EPDDYTAYAPLTCYFT [chain 1 E2P] the enrichment was -5.46 log2 (difference from the parental peptide).
In the case of chain 1 EEDDYTAYAPLTCYNT [chain 1 F15N], the enrichment is reported as -0.8 log2 (difference from the parental peptide).
With chain 1 EEDDYTAYAPLTCYQT [chain 1 F15Q] the enrichment was -0.747 log2 (difference from the parental peptide).
With chain 1 EEDDYTAYAPLTCYLT [chain 1 F15L] the enrichment was -0.246 log2 (difference from the parental peptide).
With chain 1 EEDDYTAYAPLTCYGT [chain 1 F15G] the enrichment was -2.74 log2 (difference from the parental peptide).
chain 1 EEDDYTAYAPLTCYWT [chain 1 F15W] was tested, and the enrichment was 0.858 log2 (difference from the parental peptide).
For chain 1 EEDDYTAYAPLTCYHT [chain 1 F15H], the enrichment was 0.892 log2 (difference from the parental peptide).
For chain 1 EEDDYTAYAPLYCYFT [chain 1 T12Y], the enrichment was 2.35 log2 (difference from the parental peptide).
For chain 1 EEDDYTAYAPLKCYFT [chain 1 T12K], the enrichment was 2.34 log2 (difference from the parental peptide).
chain 1 EEDDYTAYAPLPCYFT [chain 1 T12P] was tested, and the enrichment was 2.6 log2 (difference from the parental peptide).
With chain 1 EEDDYTAYAPLNCYFT [chain 1 T12N] the enrichment was -0.224 log2 (difference from the parental peptide).
In the case of chain 1 EEDDYTAYAPLACYFT [chain 1 T12A], the enrichment is reported as -0.997 log2 (difference from the parental peptide).
chain 1 EEDDYTAYAPLRCYFT [chain 1 T12R] was tested, and the enrichment was 4.22 log2 (difference from the parental peptide).
With chain 1 EEDDYTAYAPLSCYFT [chain 1 T12S] the enrichment was -0.091 log2 (difference from the parental peptide).
For chain 1 EEDDYTAYAYLTCYFT [chain 1 P10Y], the enrichment was -6.98 log2 (difference from the parental peptide).
With chain 1 EEDDYTAYADLTCYFT [chain 1 P10D] the enrichment was -7.41 log2 (difference from the parental peptide).
chain 1 EEDDYTAYAGLTCYFT [chain 1 P10G] was tested, and the enrichment was -7.9 log2 (difference from the parental peptide).
For chain 1 EEDDYTAYAWLTCYFT [chain 1 P10W], the enrichment was -5.26 log2 (difference from the parental peptide).
In the case of chain 1 EEDDYPAYAPLTCYFT [chain 1 T6P], the enrichment is reported as -4.79 log2 (difference from the parental peptide).
In the case of chain 1 EEDDYRAYAPLTCYFT [chain 1 T6R], the enrichment is reported as -0.184 log2 (difference from the parental peptide).
In the case of chain 1 EEDDYQAYAPLTCYFT [chain 1 T6Q], the enrichment is reported as 1.04 log2 (difference from the parental peptide).
With chain 1 EEDDYWAYAPLTCYFT [chain 1 T6W] the enrichment was 0.246 log2 (difference from the parental peptide).
In the case of chain 1 EEDDYFAYAPLTCYFT [chain 1 T6F], the enrichment is reported as -4.13 log2 (difference from the parental peptide).
With chain 1 EEDDYAAYAPLTCYFT [chain 1 T6A] the enrichment was 2.21 log2 (difference from the parental peptide).
With chain 1 EEDDYVAYAPLTCYFT [chain 1 T6V] the enrichment was -4.41 log2 (difference from the parental peptide).
For chain 1 EEDDYKAYAPLTCYFT [chain 1 T6K], the enrichment was -1.04 log2 (difference from the parental peptide).
With chain 1 EEDDYHAYAPLTCYFT [chain 1 T6H] the enrichment was -0.511 log2 (difference from the parental peptide).
chain 1 EEDQYTAYAPLTCYFT [chain 1 D4Q] was tested, and the enrichment was -6.48 log2 (difference from the parental peptide).
For chain 1 EEDIYTAYAPLTCYFT [chain 1 D4I], the enrichment was -7.79 log2 (difference from the parental peptide).
With chain 1 EEDMYTAYAPLTCYFT [chain 1 D4M] the enrichment was -4.82 log2 (difference from the parental peptide).
In the case of chain 1 EEDPYTAYAPLTCYFT [chain 1 D4P], the enrichment is reported as -7.07 log2 (difference from the parental peptide).
chain 1 EEDWYTAYAPLTCYFT [chain 1 D4W] was tested, and the enrichment was -3.58 log2 (difference from the parental peptide).
For chain 1 EEDDYTAYQPLTCYFT [chain 1 A9Q], the enrichment was -2.13 log2 (difference from the parental peptide).
With chain 1 EEDDYTAYFPLTCYFT [chain 1 A9F] the enrichment was -6.96 log2 (difference from the parental peptide).
With chain 1 EEDDYTAYYPLTCYFT [chain 1 A9Y] the enrichment was -6.66 log2 (difference from the parental peptide).
In the case of chain 1 EEDDYTAYKPLTCYFT [chain 1 A9K], the enrichment is reported as -1.67 log2 (difference from the parental peptide).
For chain 1 EEDDYTAYEPLTCYFT [chain 1 A9E], the enrichment was -1.54 log2 (difference from the parental peptide).
With chain 1 EEDDYTAYRPLTCYFT [chain 1 A9R] the enrichment was 0.319 log2 (difference from the parental peptide).
In the case of chain 1 EEDDYTAYVPLTCYFT [chain 1 A9V], the enrichment is reported as -7.85 log2 (difference from the parental peptide).
In the case of chain 1 EEPDYTAYAPLTCYFT [chain 1 D3P], the enrichment is reported as -3.61 log2 (difference from the parental peptide).
In the case of chain 1 EEWDYTAYAPLTCYFT [chain 1 D3W], the enrichment is reported as -4.6 log2 (difference from the parental peptide).
chain 1 FEDDYTAYAPLTCYFT [chain 1 E1F] was tested, and the enrichment was -2.24 log2 (difference from the parental peptide).
With chain 1 YEDDYTAYAPLTCYFT [chain 1 E1Y] the enrichment was -0.831 log2 (difference from the parental peptide).
chain 1 DEDDYTAYAPLTCYFT [chain 1 E1D] was tested, and the enrichment was 2.17 log2 (difference from the parental peptide).
With chain 1 MEDDYTAYAPLTCYFT [chain 1 E1M] the enrichment was -0.805 log2 (difference from the parental peptide).
In the case of chain 1 TEDDYTAYAPLTCYFT [chain 1 E1T], the enrichment is reported as -2.09 log2 (difference from the parental peptide).
In the case of chain 1 EEDDYTAYAPLTCYFF [chain 1 T16F], the enrichment is reported as -0.929 log2 (difference from the parental peptide).
With chain 1 EEDDYTAYAPLTCYFC [chain 1 T16C] the enrichment was -0.313 log2 (difference from the parental peptide).
For chain 1 EEDDYTAYAPLTCYFN [chain 1 T16N], the enrichment was 0.543 log2 (difference from the parental peptide).
For chain 1 EEDDYTAYAPLTCYFR [chain 1 T16R], the enrichment was 0.774 log2 (difference from the parental peptide).
With chain 1 EEDDYTAYAPLTCYFP [chain 1 T16P] the enrichment was 1.71 log2 (difference from the parental peptide).
chain 1 EEDDYTRYAPLTCYFT [chain 1 A7R] was tested, and the enrichment was 1.93 log2 (difference from the parental peptide).
chain 1 EEDDYTNYAPLTCYFT [chain 1 A7N] was tested, and the enrichment was 0.601 log2 (difference from the parental peptide).
chain 1 EEDDYTHYAPLTCYFT [chain 1 A7H] was tested, and the enrichment was -1.29 log2 (difference from the parental peptide).
With chain 1 EEDDYTKYAPLTCYFT [chain 1 A7K] the enrichment was 1.75 log2 (difference from the parental peptide).
With chain 1 EEDDYTSYAPLTCYFT [chain 1 A7S] the enrichment was 0.765 log2 (difference from the parental peptide).
With chain 1 EEDDYTFYAPLTCYFT [chain 1 A7F] the enrichment was -4.01 log2 (difference from the parental peptide).
With chain 1 EEDDLTAYAPLTCYFT [chain 1 Y5L] the enrichment was -1.89 log2 (difference from the parental peptide).
For chain 1 EEDDWTAYAPLTCYFT [chain 1 Y5W], the enrichment was 1.1 log2 (difference from the parental peptide).
For chain 1 EEDDSTAYAPLTCYFT [chain 1 Y5S], the enrichment was -6.78 log2 (difference from the parental peptide).
In the case of chain 1 EEDDMTAYAPLTCYFT [chain 1 Y5M], the enrichment is reported as -1.76 log2 (difference from the parental peptide).
chain 1 EEDDITAYAPLTCYFT [chain 1 Y5I] was tested, and the enrichment was -6.63 log2 (difference from the parental peptide).
chain 1 EEDDYTAYAPRTCYFT [chain 1 L11R] was tested, and the enrichment was 1.13 log2 (difference from the parental peptide).
chain 1 EEDDYTAYAPFTCYFT [chain 1 L11F] was tested, and the enrichment was 0.136 log2 (difference from the parental peptide).
With chain 1 EEDDYTAYAPPTCYFT [chain 1 L11P] the enrichment was -5.29 log2 (difference from the parental peptide).
In the case of chain 1 EEDDYTAYAPSTCYFT [chain 1 L11S], the enrichment is reported as 0.482 log2 (difference from the parental peptide).
In the case of chain 1 EEDDYTAYAPCTCYFT [chain 1 L11C], the enrichment is reported as 0.802 log2 (difference from the parental peptide).
For chain 1 EEDDYTAYAPWTCYFT [chain 1 L11W], the enrichment was -0.394 log2 (difference from the parental peptide).
chain 1 EEDDYTAYAPATCYFT [chain 1 L11A] was tested, and the enrichment was -0.478 log2 (difference from the parental peptide).
With chain 1 EEDDYTAYAPGTCYFT [chain 1 L11G] the enrichment was -5.39 log2 (difference from the parental peptide).
With chain 1 EEDDYTAYAPLTCNFT [chain 1 Y14N] the enrichment was -0.898 log2 (difference from the parental peptide).
In the case of chain 1 EEDDYTAYAPLTCAFT [chain 1 Y14A], the enrichment is reported as -1.98 log2 (difference from the parental peptide).
With chain 1 EEDDYTAYAPLTCVFT [chain 1 Y14V] the enrichment was 0.032 log2 (difference from the parental peptide).
For chain 1 EEDDYTAYAPLTCPFT [chain 1 Y14P], the enrichment was -3.33 log2 (difference from the parental peptide).
With chain 1 EEDDYTAYAPLTCKFT [chain 1 Y14K] the enrichment was -0.0931 log2 (difference from the parental peptide).
In the case of chain 1 EEDDYTAYAPLTCLFT [chain 1 Y14L], the enrichment is reported as -2.35 log2 (difference from the parental peptide).
For chain 1 EEDDYTAYAPLTCGFT [chain 1 Y14G], the enrichment was -4.12 log2 (difference from the parental peptide).
chain 1 EEDDYTAYAPLTCTFT [chain 1 Y14T] was tested, and the enrichment was 1.08 log2 (difference from the parental peptide).
With chain 1 EEDDYTASAPLTCYFT [chain 1 Y8S] the enrichment was -8.74 log2 (difference from the parental peptide).
chain 1 EEDDYTAVAPLTCYFT [chain 1 Y8V] was tested, and the enrichment was -7.55 log2 (difference from the parental peptide).
